Measurements from patent US10954305B2 (Immunomedics, Inc., priority 2016, dated 2021).
“Also recorded” adds a separate entry of the source.

Assays:
HCC1806 (Trop-2+) = test: dsDNA breaks, rH2AX flow cytometry; type: cell-based, human; details: untreated baseline 168
Protocol: (§2) For drug activity testing, HCC1806 and HCC1395 TNBC cell lines cells were seeded in 6-well plates at 5×10^5 cells/well and held at 37° C. overnight. […] The signal intensity of rH2AX was measured by flow cytometry using a BD FACSCalibur (BD Biosciences, San Jose, Calif.).
(§3) The cells were then washed to remove unbound conjugate, and then incubated overnight at 37° C.

[1] = storage stability of lyophilized IMMU-132; type: physicochemical
Text: HIC-HPLC results were confirmed by liquid chromatography-mass spectrometry (LC-MS) (not shown).

[2] = Phase I/II clinical trial of IMMU-132, adverse events; type: in vivo, human; details: for dose-limiting toxicity: Phase I
Text: The maximum tolerated dose (MTD) was judged on the patient's tolerance to the first treatment cycle.

[3] = tested on: non-small cell lung cancer; test: Phase I/II clinical trial of IMMU-132, NSCLC; type: in vivo, human
Protocol: Out of 29 patients, there were 8 PR and 13 SD. […] The median time to progression was […], with a range from 1.8 to 15.5+ months and 47% of patients still undergoing treatment. Median PFS was 3.4 months at 8 mg/kg and 3.8 months at 10 mg/kg. However, studies are still ongoing and the median progression-free survival numbers are likely to improve.

NCI-N87-S-120 tumors = test: SN-38-resistant xenograft therapy; details: IMMU-132 0.5 mg twice weekly ×4 weeks; irinotecan 40 mg/kg q2dx5
Protocol: Mice were euthanized once tumors grew to >1.0 cm^3 in size.
NCr female athymic nude (nu/nu) mice, 4 weeks old, were purchased from Taconic Farms. […] Tumor volume (TV) was determined by measurements in two dimensions using calipers, with volumes defined as: L×w^2/2, where L is the longest dimension of the tumor and w the shortest. […] Control mice received each agent alone. […] Mice were euthanized and deemed to have succumbed to disease once tumors grew to >1.0 cm^3 in size.

urothelial cancer = test: Phase I/II clinical trial of IMMU-132, urothelial; type: in vivo, human; details: 11 assessable patients, 8 or 10 mg/kg
[4] = Phase I/II clinical trial of IMMU-132, immunogenicity; type: in vivo, human; details: repeated dosing
HCC1395 (Trop-2−) = test: dsDNA breaks, rH2AX flow cytometry; type: cell-based, human; details: untreated baseline 122
Protocol: as §2, §3

[5] = tolerability in Swiss-Webster mice; details: normal mice, over 1 week
Capan-1 tumors = test: CL2 vs CL2A linker, Capan-1 xenograft; type: in vivo, mice; details: 0.2 mg/kg SN-38 twice weekly × 4 weeks
Protocol: FIG. 4C. […] Capan-1 mice (N=10) were treated with 0.2 mg/kg ADC and tumors measured weekly.

[6] = tested on: stage IV metastatic gastric cancer; test: therapy of a gastric cancer patient; type: in vivo, human; details: after another 5 courses
recombinant human Trop-2 = target: T1, recombinant human Trop-2 (Homo sapiens, UniProt P09758); test: Trop-2 ELISA; type: binding
T1 construct: purchased Sino Biological, Inc. 10428-H09H
T1 sequence (P09758 27-323): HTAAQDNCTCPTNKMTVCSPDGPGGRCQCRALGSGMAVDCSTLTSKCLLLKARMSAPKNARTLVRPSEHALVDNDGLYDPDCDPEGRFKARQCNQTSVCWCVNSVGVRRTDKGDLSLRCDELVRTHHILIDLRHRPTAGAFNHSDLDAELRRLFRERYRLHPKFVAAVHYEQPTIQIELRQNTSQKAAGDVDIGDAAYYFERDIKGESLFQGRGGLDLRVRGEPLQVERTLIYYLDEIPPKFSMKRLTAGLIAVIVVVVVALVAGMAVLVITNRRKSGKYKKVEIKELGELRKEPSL
Protocol: Recombinant human Trop-2 with a His-tag (Sino Biological, Inc., Bejing, China; Cat #10428-H09H) and recombinant mouse Trop-2 with a His-Tag (Sino Biological, Inc., Cat #50922-MO8H) were plated onto Ni-NTA Hissorb strips (Qiagen GmbH Cat #35023) at 1 μg for 1 h at room temperature. The plate was washed four times with PBS-Tween (0.05%) wash buffer. Serial dilutions of hRS7 were made in 1% BSA-PBS dilution buffer to a test range of 0.1 ng/mL to 10 μg/mL. The plates were then incubated for 2 h at room temperature before being washed four times followed by the addition of a peroxidase conjugated secondary antibody (goat anti-human, Fc fragment specific; Jackson Immunoresearch Cat #109-036-098). After a 45-min incubation, the plate was washed and a substrate solution (o-phenylenediamine dihydrochloride (OPD); Sigma, Cat #P828) added to all the wells. Plates were incubated in the dark for 15 min before the reaction was stopped with 4N sulfuric acid. The plates were read at 450 nm on Biotek ELX808 plate reader. Data were analyzed and graphed using Prism GraphPad Software (v4.03) (Advanced Graphics Software, Inc.; Encinitas, Calif.).

rhTrop-2/TACSTD2 = target: T2, rhTrop-2/TACSTD2 (Homo sapiens, UniProt P09758); test: surface plasmon resonance binding (BIACORE); details: three independent runs
T2 construct: purchased Sino Biological, Inc
T2 sequence (P09758 27-323): T1 sequence (P09758 27-323)
Protocol: (§1) Briefly, rhTrop-2/TACSTD2 (Sino Biological, Inc.) or recombinant human neonatal receptor (FcRn), produced as described (Wang et al., 2011, Drug Metab Dispos 39:1469-77), was immobilized with an amine coupling kit (GE Healthcare; Cat. No. BR-1000-50) on a CM5 sensor chip (GE Healthcare; Cat. #BR-1000-12) following manufacturer's instructions for a low-density chip. […] Each set would make up a separate run on the BIACORE (BIACORE-X; Biacore Inc., Piscataway, N.J.) and data were analyzed using BIAevaluation Software (Biacore Inc., v4.1). Analysis was performed with a 1:1 (Langmuir) Binding Model and Fit, using all five concentration points for each sample run to determine the best fit (lowest χ^2 value). The KD value was calculated using the formula KD=kd1/ka1, where kd1 is the dissociation rate-constant and ka1 is the association-rate constant.

[7] = target: T3, human neonatal receptor (FcRn) (Homo sapiens, UniProt P55899); test: surface plasmon resonance binding (BIACORE); details: three independent runs
T3 construct: made in house
T3 sequence (P55899 24-297 limits assumed): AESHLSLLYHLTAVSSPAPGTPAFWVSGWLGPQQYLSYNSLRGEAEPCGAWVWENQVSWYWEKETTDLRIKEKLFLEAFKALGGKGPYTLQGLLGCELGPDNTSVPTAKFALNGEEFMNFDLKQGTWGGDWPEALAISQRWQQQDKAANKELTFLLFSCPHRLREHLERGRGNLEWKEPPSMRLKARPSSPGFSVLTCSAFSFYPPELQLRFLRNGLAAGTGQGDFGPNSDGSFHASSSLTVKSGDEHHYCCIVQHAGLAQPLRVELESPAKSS
T3 sequence (P61769 21-119 partner): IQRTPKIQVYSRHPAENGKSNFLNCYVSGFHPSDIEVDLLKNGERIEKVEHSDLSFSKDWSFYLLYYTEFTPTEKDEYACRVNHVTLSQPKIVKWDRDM
Protocol: as §1

[8] = listed as sacituzumab govitecan

Substance: IMMU-132
- Median fluorescence intensity (rH2AX) (HCC1806 (Trop-2+)): 546
- stability once prepared and lyophilized [1]: stable for several years
- grade-3 diarrhea, patients ([2]; 10 mg/kg): 1
- Dose-limiting toxicity 1st cycle, patients ([2]; 18 mg/kg, 3 treated): 2
- neutropenia >Grade 3 ([2]; 49 patients reporting related AE): 28%
- incidence of Grade 3 or higher adverse events other than neutropenia ([2]; 261 patients enrolled): less than 10%
- Abdominal pain, Grade 3, n (%) ([2]; N = 47): 0
- Abdominal pain, Grade 4, n (%) ([2]; N = 47): 0
- Anemia, Grade 3, n (%) ([2]; N = 47): 2 (4%)
- Anemia, Grade 4, n (%) ([2]; N = 47): 0
- Deep vein thrombosis, Grade 3, n (%) ([2]; N = 47): 1 (2%)
- Deep vein thrombosis, Grade 4, n (%) ([2]; N = 47): 0
- Diarrhea, Grade 3, n (%) ([2]; N = 47): 4 (9%)
- Diarrhea, Grade 4, n (%) ([2]; N = 47): 0
- Dysgeusia, Grade 3, n (%) ([2]; N = 47): 0
- Dysgeusia, Grade 4, n (%) ([2]; N = 47): 0
- Fatigue, Grade 3, n (%) ([2]; N = 47): 4 (9%)
- Fatigue, Grade 4, n (%) ([2]; N = 47): 0
- Febrile Neutropenia, Grade 3, n (%) ([2]; N = 47): 1 (2%)
- Febrile Neutropenia, Grade 4, n (%) ([2]; N = 47): 2 (4%)
- Hypokalemia, Grade 3, n (%) ([2]; N = 47): 1 (2%)
- Hypokalemia, Grade 4, n (%) ([2]; N = 47): 0
- Nausea, Grade 3, n (%) ([2]; N = 47): 0
- Nausea, Grade 4, n (%) ([2]; N = 47): 0
- Neutropenia, Grade 3, n (%) ([2]; N = 47): 11 (24%)
- Neutropenia, Grade 4, n (%) ([2]; N = 47): 2 (4%)
- Pyrexia, Grade 3, n (%) ([2]; N = 47): 0
- Pyrexia, Grade 4, n (%) ([2]; N = 47): 0
- Vomiting, Grade 3, n (%) ([2]; N = 47): 1 (2%)
- Vomiting, Grade 4, n (%) ([2]; N = 47): 0
- WBC Decrease, Grade 3, n (%) ([2]; N = 47): 1 (2%)
- WBC Decrease, Grade 4, n (%) ([2]; N = 47): 0
- dose-limiting toxicity [2]: neutropenia
- dose-limiting toxicity [2, 8]: Neutropenia
- PD ([3]; of 5 assessable patients): 1
- PR ([3]; of 5 assessable patients): 1
- PR ([3]; out of 29 patients, 8 or 10 mg/kg): 8
- primary target lesion at first CT ([3]; person, from 5.6 cm, after 6 doses): 3.2 cm
- survival benefit (NCI-N87-S-120 tumors): no significant survival benefit
- PR (urothelial cancer): 6
- anti-hRS7 / anti-SN-38 antibody response [4]: No anti-hRS7 or anti-SN-38 antibodies were detected; also recorded: no anti-hRS7 or anti-SN-38 antibody response has been detected; also recorded: none of the patients developed an antibody response to IMMU-132 or SN-38
- anti-hRS7 / anti-SN-38 antibody response [4, 8]: no antibody response to the hRS7 IgG or SN-38 was detected
- Median fluorescence intensity (rH2AX) (HCC1395 (Trop-2−)): 123
- cumulative dose without acute toxicity [5]: 24 mg/kg SN-38
- mice tumor-free at end of study (day 140) (Capan-1 tumors): 50%
- disease reduction by RECIST at follow-up [6]: about 35%

Substance: hRS7 IgG
- Kd (recombinant human Trop-2): 0.3 nM
- Kd (rhTrop-2/TACSTD2): 0.51 ± 0.04 nM
- Kd [7]: 92.4 ± 5.7 nM
